Source: the supplement of paper PMC9112550, “Optimization of the antimicrobial peptide Bac7 by deep mutational scanning” (BMC Biology, 2022)

Tested on: Escherichia coli TOP10
Assay: shrunken log2 fold change of peptide-encoding DNA abundance (4.5 h post-induction vs induction); higher = less antimicrobial activity (less host growth inhibition)
Conditions: time post-induction: 4.5 h; library: site-saturation at positions 5, 18, 19, 20
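Further: peptides expressed intracellularly from a pBAD plasmid library in pooled LB shake-flask culture, induced with 0.3% L-arabinose, DNA abundance read by NGS, three biological replicates, DESeq2 with apeglm shrinkage.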

Sequence	shrunken log2 fold change
RRIRRRPPRLPRPRPRPDFQPRP	-0.135
RRIRRRPPRLPRPRPRPDGEPRP	-0.0341
RRIRRRPPRLPRPRPRPDGLPRP	0.771
RRIRRRPPRLPRPRPRPDGNPRP	0.0694
RRIRRRPPRLPRPRPRPDHIPRP	0.0664
RRIRRRPPRLPRPRPRPDNQPRP	0.0853
RRIRRRPPRLPRPRPRPDRPPRP	0.13
RRIRRRPPRLPRPRPRPDRWPRP	0.957
RRIRRRPPRLPRPRPRPDSYPRP	-0.117
RRIRRRPPRLPRPRPRPDTKPRP	-0.139
RRIRRRPPRLPRPRPRPDVKPRP	3.47
RRIRRRPPRLPRPRPRPDWTPRP	-0.133
RRIRRRPPRLPRPRPRPDYQPRP	0.0952
RRIRRRPPRLPRPRPRPEDKPRP	0.103
RRIRRRPPRLPRPRPRPEDMPRP	0.296
RRIRRRPPRLPRPRPRPEFFPRP	0.216
RRIRRRPPRLPRPRPRPEFYPRP	0.413
RRIRRRPPRLPRPRPRPEGCPRP	0.863
RRIRRRPPRLPRPRPRPEGIPRP	0.252
RRIRRRPPRLPRPRPRPEHCPRP	-0.00244
RRIRRRPPRLPRPRPRPEHFPRP	0.301
RRIRRRPPRLPRPRPRPEHRPRP	0.343
RRIRRRPPRLPRPRPRPEKAPRP	0.0304
RRIRRRPPRLPRPRPRPEPCPRP	0.388
RRIRRRPPRLPRPRPRPEPIPRP	0.378

Sequence	shrunken log2 fold change
RRIRRRPPRLPRPRPRPESGPRP	0.545
RRIRRRPPRLPRPRPRPETCPRP	-0.00655
RRIRRRPPRLPRPRPRPEWFPRP	-0.159
RRIRRRPPRLPRPRPRPEYHPRP	0.311
RRIRRRPPRLPRPRPRPFACPRP	0.152
RRIRRRPPRLPRPRPRPFDAPRP	0.44
RRIRRRPPRLPRPRPRPFDKPRP	0.0721
RRIRRRPPRLPRPRPRPFEFPRP	0.117
RRIRRRPPRLPRPRPRPFFAPRP	0.98
RRIRRRPPRLPRPRPRPFFYPRP	0.0607
RRIRRRPPRLPRPRPRPFGLPRP	-0.0905
RRIRRRPPRLPRPRPRPFGMPRP	-0.0784
RRIRRRPPRLPRPRPRPFGWPRP	0.271
RRIRRRPPRLPRPRPRPFHAPRP	0.201
RRIRRRPPRLPRPRPRPFKAPRP	0.182
RRIRRRPPRLPRPRPRPFKHPRP	-0.212
RRIRRRPPRLPRPRPRPFMSPRP	-0.327
RRIRRRPPRLPRPRPRPFNFPRP	-0.473
RRIRRRPPRLPRPRPRPFNMPRP	-0.362
RRIRRRPPRLPRPRPRPFNPPRP	-0.277
RRIRRRPPRLPRPRPRPFNVPRP	-0.264
RRIRRRPPRLPRPRPRPFQDPRP	-0.15
RRIRRRPPRLPRPRPRPFQHPRP	-0.248
RRIRRRPPRLPRPRPRPFRCPRP	-0.15
RRIRRRPPRLPRPRPRPFREPRP	0.163

Sequence	shrunken log2 fold change
RRIRRRPPRLPRPRPRPFYVPRP	-0.0483
RRIRRRPPRLPRPRPRPGAHPRP	0.45
RRIRRRPPRLPRPRPRPGCGPRP	0.657
RRIRRRPPRLPRPRPRPGDFPRP	0.464
RRIRRRPPRLPRPRPRPGDYPRP	-0.045
RRIRRRPPRLPRPRPRPGGMPRP	0.235
RRIRRRPPRLPRPRPRPGGRPRP	0.295
RRIRRRPPRLPRPRPRPGGVPRP	0.483
RRIRRRPPRLPRPRPRPGGWPRP	0.824
RRIRRRPPRLPRPRPRPGIGPRP	-0.00887
RRIRRRPPRLPRPRPRPGILPRP	-0.174
RRIRRRPPRLPRPRPRPGKWPRP	0.152
RRIRRRPPRLPRPRPRPGLGPRP	0.55
RRIRRRPPRLPRPRPRPGLLPRP	0.0882
RRIRRRPPRLPRPRPRPGMDPRP	0.0814
RRIRRRPPRLPRPRPRPGPHPRP	0.437
RRIRRRPPRLPRPRPRPGPIPRP	0.174
RRIRRRPPRLPRPRPRPGPTPRP	0.678
RRIRRRPPRLPRPRPRPGQKPRP	-0.0196
RRIRRRPPRLPRPRPRPGQNPRP	0.203
RRIRRRPPRLPRPRPRPGRFPRP	0.451
RRIRRRPPRLPRPRPRPGRNPRP	-0.000492
RRIRRRPPRLPRPRPRPGTLPRP	-0.0513
RRIRRRPPRLPRPRPRPGWFPRP	0.283
RRIRRRPPRLPRPRPRPGWPPRP	0.858

Sequence	shrunken log2 fold change
RRIRRRPPRLPRPRPRPGYEPRP	0.0872
RRIRRRPPRLPRPRPRPGYTPRP	0.243
RRIRRRPPRLPRPRPRPHCEPRP	-0.169
RRIRRRPPRLPRPRPRPHESPRP	0.0784
RRIRRRPPRLPRPRPRPHFFPRP	0.149
RRIRRRPPRLPRPRPRPHFTPRP	-0.0671
RRIRRRPPRLPRPRPRPHFVPRP	-0.103
RRIRRRPPRLPRPRPRPHGHPRP	0.224
RRIRRRPPRLPRPRPRPHHAPRP	-0.0424
RRIRRRPPRLPRPRPRPHIKPRP	-0.43
RRIRRRPPRLPRPRPRPHIQPRP	-0.114
RRIRRRPPRLPRPRPRPHLNPRP	-0.194
RRIRRRPPRLPRPRPRPHMDPRP	-0.265
RRIRRRPPRLPRPRPRPHMEPRP	0.0679
RRIRRRPPRLPRPRPRPHMGPRP	-0.15
RRIRRRPPRLPRPRPRPHMLPRP	-0.0594
RRIRRRPPRLPRPRPRPHMQPRP	0.0237
RRIRRRPPRLPRPRPRPHNPPRP	-0.0181
RRIRRRPPRLPRPRPRPHPGPRP	0.316
RRIRRRPPRLPRPRPRPHRQPRP	0.0248
RRIRRRPPRLPRPRPRPHSEPRP	0.0888
RRIRRRPPRLPRPRPRPHSNPRP	-0.281
RRIRRRPPRLPRPRPRPHSSPRP	-0.00646
RRIRRRPPRLPRPRPRPIACPRP	0.0283
RRIRRRPPRLPRPRPRPIDDPRP	-0.128

Sequence	shrunken log2 fold change
RRIRRRPPRLPRPRPRPIDPPRP	-0.0222
RRIRRRPPRLPRPRPRPIEAPRP	-0.137
RRIRRRPPRLPRPRPRPIFHPRP	0.129
RRIRRRPPRLPRPRPRPIFIPRP	-0.0166
RRIRRRPPRLPRPRPRPIHLPRP	-0.0465
RRIRRRPPRLPRPRPRPIIWPRP	-0.0862
RRIRRRPPRLPRPRPRPIMFPRP	-0.0974
RRIRRRPPRLPRPRPRPIPMPRP	0.287
RRIRRRPPRLPRPRPRPIQPPRP	-0.0245
RRIRRRPPRLPRPRPRPISYPRP	0.0496
RRIRRRPPRLPRPRPRPITQPRP	-0.0203
RRIRRRPPRLPRPRPRPIVKPRP	-0.0348
RRIRRRPPRLPRPRPRPIVRPRP	0.117
RRIRRRPPRLPRPRPRPIVYPRP	-0.00893
RRIRRRPPRLPRPRPRPIWVPRP	0.222
RRIRRRPPRLPRPRPRPIYGPRP	-0.69
RRIRRRPPRLPRPRPRPKAFPRP	-0.0104
RRIRRRPPRLPRPRPRPKCWPRP	0.307
RRIRRRPPRLPRPRPRPKDWPRP	0.36
RRIRRRPPRLPRPRPRPKEGPRP	-0.000243
RRIRRRPPRLPRPRPRPKFRPRP	-0.0588
RRIRRRPPRLPRPRPRPKGKPRP	0.195
RRIRRRPPRLPRPRPRPKIIPRP	-0.364
RRIRRRPPRLPRPRPRPKIMPRP	-0.0825
RRIRRRPPRLPRPRPRPKLGPRP	0.141

Sequence	shrunken log2 fold change
RRIRRRPPRLPRPRPRPKLSPRP	0.262
RRIRRRPPRLPRPRPRPKLTPRP	0.0538
RRIRRRPPRLPRPRPRPKMYPRP	-0.258
RRIRRRPPRLPRPRPRPKPLPRP	0.474
RRIRRRPPRLPRPRPRPKQNPRP	0.631
RRIRRRPPRLPRPRPRPKQPPRP	0.0672
RRIRRRPPRLPRPRPRPKRVPRP	0.298
RRIRRRPPRLPRPRPRPKRWPRP	0.409
RRIRRRPPRLPRPRPRPKSCPRP	0.0766
RRIRRRPPRLPRPRPRPKSDPRP	0.441
RRIRRRPPRLPRPRPRPKSFPRP	0.0604
RRIRRRPPRLPRPRPRPKSPPRP	0.189
RRIRRRPPRLPRPRPRPKWPPRP	0.141
RRIRRRPPRLPRPRPRPLCHPRP	0.182
RRIRRRPPRLPRPRPRPLDAPRP	0.472
RRIRRRPPRLPRPRPRPLDIPRP	-0.121
RRIRRRPPRLPRPRPRPLECPRP	0.0527
RRIRRRPPRLPRPRPRPLERPRP	0.0981
RRIRRRPPRLPRPRPRPLFLPRP	-0.173
RRIRRRPPRLPRPRPRPLGDPRP	0.682
RRIRRRPPRLPRPRPRPLGLPRP	0.363
RRIRRRPPRLPRPRPRPLGNPRP	-0.0268
RRIRRRPPRLPRPRPRPLIAPRP	0.294
RRIRRRPPRLPRPRPRPLMFPRP	0.0336
RRIRRRPPRLPRPRPRPLMTPRP	0.351
